Here are results for 51 variants from the Human Domainome abundance scans (Beltran et al. 2025).

First the molecules themselves.
B1: Max-interacting protein 1, residues 70 to 120; numbered along this chain, P50539 (parent)
chain: STHNELEKNRRAHLRLCLERLKVLIPLGPDCTRHTTLGLLNKAKAHIKKLE

± gives the uncertainty stated by the source.

The series covers variants of B1. Kind of series: abundance fitness (aPCA) (normalised: wild type 0, dead -1); higher = more abundant; growth selection in yeast, the domain comes from the species named. The conditions noted are these: Homo sapiens.
With STHNELEKNRRAHRRLCLERLKVLIPLGPDCTRHTTLGLLNKAKAHIKKLE [L14R], the abundance fitness was -0.447 ± 0.086. For STHNELEKNRRAHLRKCLERLKVLIPLGPDCTRHTTLGLLNKAKAHIKKLE [L16K] the value was 0.022 ± 0.15; for STHNELEKNRRAHLRCCLERLKVLIPLGPDCTRHTTLGLLNKAKAHIKKLE [L16C], -0.247 ± 0.14.

With STHNELEKNRRAHLRMCLERLKVLIPLGPDCTRHTTLGLLNKAKAHIKKLE [L16M], the abundance fitness was -0.001 ± 0.16. For STHNELEKNRRAHLRSCLERLKVLIPLGPDCTRHTTLGLLNKAKAHIKKLE [L16S] the value was 0.218 ± 0.1. Turning to STHNELEKNRRAHLRACLERLKVLIPLGPDCTRHTTLGLLNKAKAHIKKLE [L16A], the abundance fitness was -0.05 ± 0.1.

Consider STHNELEKNRRAHLRNCLERLKVLIPLGPDCTRHTTLGLLNKAKAHIKKLE [L16N], for which the abundance fitness is -0.069 ± 0.17. As for STHNELEKNRRAHLRICLERLKVLIPLGPDCTRHTTLGLLNKAKAHIKKLE [L16I], the abundance fitness is -0.133 ± 0.19.

As for STHNELEKNRRAHLRPCLERLKVLIPLGPDCTRHTTLGLLNKAKAHIKKLE [L16P], the abundance fitness was -0.126 ± 0.14. In the case of STHNELEKNRRAHLRVCLERLKVLIPLGPDCTRHTTLGLLNKAKAHIKKLE [L16V], the abundance fitness was -0.058 ± 0.1. Take STHNELEKNRRAHLRDCLERLKVLIPLGPDCTRHTTLGLLNKAKAHIKKLE [L16D]: the abundance fitness was -0.037 ± 0.25. Take STHNELEKNRRAHLRECLERLKVLIPLGPDCTRHTTLGLLNKAKAHIKKLE [L16E]: the abundance fitness came to 0.102 ± 0.12. Consider STHNELEKNRRAHLRHCLERLKVLIPLGPDCTRHTTLGLLNKAKAHIKKLE [L16H], for which the abundance fitness is -0.55 ± 0.23. As for STHNELEKNRRAHLRGCLERLKVLIPLGPDCTRHTTLGLLNKAKAHIKKLE [L16G], the abundance fitness turned out to be 0.274 ± 0.087. With STHNELEKNRRAHLRWCLERLKVLIPLGPDCTRHTTLGLLNKAKAHIKKLE [L16W], the abundance fitness amounted to 0.07 ± 0.1. For STHNELEKNRRAHLRYCLERLKVLIPLGPDCTRHTTLGLLNKAKAHIKKLE [L16Y] the value was -0.241 ± 0.17; for STHNELEKNRRAHLRQCLERLKVLIPLGPDCTRHTTLGLLNKAKAHIKKLE [L16Q], 0.16 ± 0.14; for STHNELEKNRRAHLRFCLERLKVLIPLGPDCTRHTTLGLLNKAKAHIKKLE [L16F], -0.207 ± 0.18. For STHNELEKNRRAHLRRCLERLKVLIPLGPDCTRHTTLGLLNKAKAHIKKLE [L16R] the value was 0.165 ± 0.089. Turning to STHNELEKNRRALLRLCLERLKVLIPLGPDCTRHTTLGLLNKAKAHIKKLE [H13L], the abundance fitness is 0.02 ± 0.092. On to STHNELEKNRRAPLRLCLERLKVLIPLGPDCTRHTTLGLLNKAKAHIKKLE [H13P], for which the abundance fitness worked out at 0.064 ± 0.15.

In the case of STHNELEKNRRAALRLCLERLKVLIPLGPDCTRHTTLGLLNKAKAHIKKLE [H13A], the abundance fitness is -0.515 ± 0.097.

For the variant STHNELEKNRRAMLRLCLERLKVLIPLGPDCTRHTTLGLLNKAKAHIKKLE [H13M], the abundance fitness was -0.156 ± 0.12. As for STHNELEKNRRADLRLCLERLKVLIPLGPDCTRHTTLGLLNKAKAHIKKLE [H13D], the abundance fitness is -0.604 ± 0.15. Take STHNELEKNRRATLRLCLERLKVLIPLGPDCTRHTTLGLLNKAKAHIKKLE [H13T]: the abundance fitness was -0.353 ± 0.15. For STHNELEKNRRANLRLCLERLKVLIPLGPDCTRHTTLGLLNKAKAHIKKLE [H13N], the abundance fitness was 0.093 ± 0.18. As for STHNELEKNRRACLRLCLERLKVLIPLGPDCTRHTTLGLLNKAKAHIKKLE [H13C], the abundance fitness was -0.509 ± 0.17. For STHNELEKNRRAQLRLCLERLKVLIPLGPDCTRHTTLGLLNKAKAHIKKLE [H13Q] the value was -0.086 ± 0.12; for STHNELEKNRRAFLRLCLERLKVLIPLGPDCTRHTTLGLLNKAKAHIKKLE [H13F], -0.076 ± 0.13. In the case of STHNELEKNRRAGLRLCLERLKVLIPLGPDCTRHTTLGLLNKAKAHIKKLE [H13G], the abundance fitness is 0.124 ± 0.08. With STHNELEKNRRASLRLCLERLKVLIPLGPDCTRHTTLGLLNKAKAHIKKLE [H13S], the abundance fitness was -0.085 ± 0.094. Regarding STHNELEKNRRAYLRLCLERLKVLIPLGPDCTRHTTLGLLNKAKAHIKKLE [H13Y], the abundance fitness was -0.04 ± 0.14. For STHNELEKNRRAVLRLCLERLKVLIPLGPDCTRHTTLGLLNKAKAHIKKLE [H13V], the abundance fitness is -0.339 ± 0.093. Next, STHNELEKNRRAKLRLCLERLKVLIPLGPDCTRHTTLGLLNKAKAHIKKLE [H13K]: 0.26 ± 0.14; STHNELEKNRRAILRLCLERLKVLIPLGPDCTRHTTLGLLNKAKAHIKKLE [H13I]: -0.447 ± 0.22; STHNELEKNRRAHLRLSLERLKVLIPLGPDCTRHTTLGLLNKAKAHIKKLE [C17S]: -0.641 ± 0.1.

Consider STHNELEKNRRAHLRLMLERLKVLIPLGPDCTRHTTLGLLNKAKAHIKKLE [C17M], for which the abundance fitness was determined as 0.123 ± 0.11. STHNELEKNRRAHLRLELERLKVLIPLGPDCTRHTTLGLLNKAKAHIKKLE [C17E]: the abundance fitness was -0.681 ± 0.17. In the case of STHNELEKNRRAHLRLPLERLKVLIPLGPDCTRHTTLGLLNKAKAHIKKLE [C17P], the abundance fitness was -0.232 ± 0.11. On to STHNELEKNRRAHLRLGLERLKVLIPLGPDCTRHTTLGLLNKAKAHIKKLE [C17G], for which the abundance fitness is -0.402 ± 0.1.

For the variant STHNELEKNRRAHLRLLLERLKVLIPLGPDCTRHTTLGLLNKAKAHIKKLE [C17L], the abundance fitness was 0.101 ± 0.083. On to STHNELEKNRRAHLRLVLERLKVLIPLGPDCTRHTTLGLLNKAKAHIKKLE [C17V], for which the abundance fitness is 0.061 ± 0.092. As for STHNELEKNRRAHLRLTLERLKVLIPLGPDCTRHTTLGLLNKAKAHIKKLE [C17T], the abundance fitness is -0.666 ± 0.13. Next, STHNELEKNRRAHLRLALERLKVLIPLGPDCTRHTTLGLLNKAKAHIKKLE [C17A]: -0.193 ± 0.11. For STHNELEKNRRAHLRLRLERLKVLIPLGPDCTRHTTLGLLNKAKAHIKKLE [C17R] the value was -0.729 ± 0.089. As to STHNELEKNRRAHLRLFLERLKVLIPLGPDCTRHTTLGLLNKAKAHIKKLE [C17F], the abundance fitness stood at 0.048 ± 0.14.

For the variant STHNELEKNRRAHLRLILERLKVLIPLGPDCTRHTTLGLLNKAKAHIKKLE [C17I], the abundance fitness is -0.617 ± 0.23. Consider STHNELEKNRRAHLRLHLERLKVLIPLGPDCTRHTTLGLLNKAKAHIKKLE [C17H], for which the abundance fitness was -0.683 ± 0.25. With STHNELEKNRRAHLRLYLERLKVLIPLGPDCTRHTTLGLLNKAKAHIKKLE [C17Y], the abundance fitness was -0.284 ± 0.14. For STHNELEKNRRAHLRLQLERLKVLIPLGPDCTRHTTLGLLNKAKAHIKKLE [C17Q], the abundance fitness is -0.635 ± 0.16.

For STHNELEKNRRAHLRLNLERLKVLIPLGPDCTRHTTLGLLNKAKAHIKKLE [C17N], the abundance fitness is -0.536 ± 0.28.
